Data on one protein can be found in publication PMC9132474 (Science Advances, 2022).

In general, stoichiometry N refers to a count of units in the complex or per binding partner.

This series concerns the molecule itself. Put plainly: cryo-EM structure.

B1: human sodium-proton exchanger 3 (NHE3/SLC9A3) (natural protein, UniProt P48764 26-834, looked up)
chain: GGVEVEPGGAHGESGGFQVVTFEWAHVQDPYVIALWILVASLAKIGFHLSHKVTSVVPESALLIVLGLVLGGIVWAADHIASFTLTPTVFFFYLLPPIVLDAGYFMPNRLFFGNLGTILLYAVVGTVWNAATTGLSLYGVFLSGLMGDLQIGLLDFLLFGSLMAAVDPVAVLAVFEEVHVNEVLFIIVFGESLLNDAVTVVLYNVFESFVALGGDNVTGVDCVKGIVSFFVVSLGGTLVGVVFAFLLSLVTRFTKHVRIIEPGFVFIISYLSYLTSEMLSLSAILAITFCGICCQKYVKANISEQSATTVRYTMKMLASSAETIIFMFLGISAVNPFIWTWNTAFVLLTLVFISVYRAIGVVLQTWLLNRYRMVQLEPIDQVVLSYGGLRGAVAFALVVLLDGDKVKEKNLFVSTTIIVVFFTVIFQGLTIKPLVQWLKVKRSEHREPRLNEKLHGRAFDHILSAIEDISGQIGHNYLRDKWSHFDRKFLSRVLMRRSAQKSRDRILNVFHELNLKDAISYVAEGERRGSLAFIRSPSTDNVVNVDFTPRSSTVEASVSYLLRENVSAVCLDMQSLEQRRRSIRDAEDMVTHHTLQQYLYKPRQEYKHLYSRHELTPTEDEKQDREIFHRTMRKRLESFKSTKLGLNQNKKAAKLYKRERAQKRRNSSIPNGKLPMESPAQNFTIKEKDLELSDTEEPPNYDEEMSGGIEFLASVTKDTASDSPAGIDNPVFSPDEALDRSLLARLPPWLSPGETVVPSQRARTQIPYSPGTFCRLMPFRLSSKSVDSFLQADGPEERPPAALPESTHM
Regarding B1, the “stoichiometry N” value came to 2.
